# T1: BCMA (human, UniProt Q02223 1-184)
# T1 construct: whole, on cells; also called human BCMA; BCMA on L363 cells
# T1 sequence (looked up): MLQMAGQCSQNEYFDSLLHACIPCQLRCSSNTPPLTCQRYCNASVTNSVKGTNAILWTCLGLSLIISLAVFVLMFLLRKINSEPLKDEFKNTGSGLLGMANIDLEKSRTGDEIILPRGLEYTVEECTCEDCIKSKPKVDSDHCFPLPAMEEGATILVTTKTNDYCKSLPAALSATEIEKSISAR
# T2: human MPL (Thrombopoietin Receptor) (human, UniProt P40238 26-635)
# T2 construct: whole, on cells; also called MPL on HEL.92.1.7 cells
# T2 sequence (looked up): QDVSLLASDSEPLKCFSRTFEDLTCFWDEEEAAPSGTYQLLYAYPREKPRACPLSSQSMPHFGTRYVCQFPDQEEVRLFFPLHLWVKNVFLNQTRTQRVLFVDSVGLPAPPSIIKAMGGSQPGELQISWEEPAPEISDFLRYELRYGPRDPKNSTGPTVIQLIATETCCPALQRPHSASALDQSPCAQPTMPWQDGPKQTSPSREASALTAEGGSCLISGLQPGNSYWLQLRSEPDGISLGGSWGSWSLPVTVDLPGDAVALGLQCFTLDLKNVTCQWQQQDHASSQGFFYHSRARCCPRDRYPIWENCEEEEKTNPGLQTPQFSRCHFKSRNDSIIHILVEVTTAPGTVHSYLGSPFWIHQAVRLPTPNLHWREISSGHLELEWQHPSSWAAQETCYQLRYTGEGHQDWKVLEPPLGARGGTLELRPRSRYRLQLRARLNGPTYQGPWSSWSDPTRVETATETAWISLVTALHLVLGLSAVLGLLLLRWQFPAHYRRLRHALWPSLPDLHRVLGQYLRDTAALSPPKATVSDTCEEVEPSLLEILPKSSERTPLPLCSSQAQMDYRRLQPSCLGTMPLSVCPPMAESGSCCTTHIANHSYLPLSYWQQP
# Tests used:
# [1] = biological target: T1, BCMA; assay: CAR stably expressed in BCMA-bearing L363 and U266 cell lines; detection reagent not named
# [2] = biological target: T2, human MPL (Thrombopoietin Receptor); assay: CAR expressed in MPL-bearing HEL.92.1.7 cells; staining with MPL antibody (1.6.1) or 161-scFv-Nluc
Binder,binding result [1],binding result [2]
"CD8SP-BCMA-huC13-F12-BBz (other, Second generation CAR (41BB, CD3z)) DIVLTQSPATLSLSPGDRATLSCRASESVTILGSHLIYWYQQKPGQAPRLLIQLASNVQTGIPARFSGSGSRTDFTLTISSLEPEDFAVYYCLQSRTIPRTFGQGTKLEIKRGGGGSGGGGSGGGGSQVQLVQSGSELKKPGESVKISCKASGYTFTHYSMNWVRQAPGQGLEWMGRINTETGEPLYADDFKGRFVFSLDTSASTAYLQISSLKAEDTAVYYCSNDYLYSLDYWGQGTLVTVSSTRAKPTTTPAPRPPTPAPTIASQPLSLRPEACRPAAGGAVHTRGLDFACDIYIWAPLAGTCGVLLLSLVITLYCKRGRKKLLYIFKQPFMRPVQTTQEEDGCSCRFPEEEEGGCELRVKFSRSADAPAYQQGQNQLYNELNLGRREEYDVLDKRRGRDPEMGGKPRRKNPQEGLYNELQKDKMAEAYSEIGMKGERRRGKGHDGLYQGLSTATKDTYDALHMQALPPR",binds,–
"CD8SP-MPL-hu-161-2-BBz (other, Second generation CAR from a humanized MPL antibody (41BB, CD3z); Entry includes the CD8 signal peptide) DVVMTQSPSSLSASVGDRVTITCMASEDIYIRLAWYQQKPGNAPKLLIYAATSLETGVPSRFSGSGSGTDFTLTISSLQPEDFATYYCQQYWSSPWTFGGGTKVEIKGGGGSGGGGSGGGGSQVQLQESGPGLVKPSQTLSLTCTVSGYSITSDYTWNWIRQPPGNGLEWIGYITYSGSTSYNPSLKSRVLISVDTSKNQVSLKLSSVTAADTAVYYCARLGRRYTMDYWGQGTTVTVSSTRAKPTTTPAPRPPTPAPTIASQPLSLRPEACRPAAGGAVHTRGLDFACDIYIWAPLAGTCGVLLLSLVITLYCKRGRKKLLYIFKQPFMRPVQTTQEEDGCSCRFPEEEEGGCELRVKFSRSADAPAYQQGQNQLYNELNLGRREEYDVLDKRRGRDPEMGGKPRRKNPQEGLYNELQKDKMAEAYSEIGMKGERRRGKGHDGLYQGLSTATKDTYDALHMQALPPR",–,binds

# Source: patent publication US20210137977A1 (UNIVERSITY OF SOUTHERN CALIFORNIA, published 2021)
